Test results published in patent US9618511B2, “Methods and compositions for treating alzheimer's disease” (Eleanore Bennett Charitable Trust #2, priority 2008, dated 2017).

Biological target: T1, association between PDK1 and Akt1 (Mus musculus, UniProt Q9Z2A0)
T1 construct: These were relatively enriched with endogenous PDK; expressed in transfected cells; host or cells: mouse C2C12 myotubes infected with Adv WT-Akt; control C2C12 extracts as source of endogenous PDK1
T1 sequence (Q9Z2A0 1-559): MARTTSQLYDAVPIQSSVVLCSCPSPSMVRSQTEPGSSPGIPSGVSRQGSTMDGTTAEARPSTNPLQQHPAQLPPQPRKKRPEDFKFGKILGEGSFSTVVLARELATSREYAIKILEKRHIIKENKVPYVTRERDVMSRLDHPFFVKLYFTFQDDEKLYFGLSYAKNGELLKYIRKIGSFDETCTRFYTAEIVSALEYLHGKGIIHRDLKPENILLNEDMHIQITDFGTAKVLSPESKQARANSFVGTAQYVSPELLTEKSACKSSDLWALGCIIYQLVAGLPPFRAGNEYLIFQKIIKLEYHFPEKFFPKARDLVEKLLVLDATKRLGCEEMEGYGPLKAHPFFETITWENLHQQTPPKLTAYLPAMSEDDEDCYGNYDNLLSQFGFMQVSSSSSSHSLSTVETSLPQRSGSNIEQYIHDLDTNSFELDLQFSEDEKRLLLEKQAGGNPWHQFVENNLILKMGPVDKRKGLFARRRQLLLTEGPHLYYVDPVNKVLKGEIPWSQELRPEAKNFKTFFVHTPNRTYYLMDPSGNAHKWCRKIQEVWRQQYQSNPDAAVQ
Experiment: PDK and Akt1 interaction assay (cell extracts, IP/western pull-down)
Format: binding, mouse (C2C12 myotubes)
Details: for association between Akt and PDK1 (co-immunoprecipitation): 5 μM, mixed cell extracts, 30 min at 30° C.
Method: Accordingly, the effect of Aβ on PDK/Akt interactions may be evaluated in any suitable in vitro assay. In some embodiments, PDK1 may be prepared from extracts of mouse C2C12 myotube cultures. To increase the amount of available Akt, this protein may be prepared from C2C12 myotubes that had previously been infected with an adenovirus expressing wild type Akt (Adv-wtAkt). In some embodiments, to measure the interaction between these proteins, the cell extracts above were mixed for 30 minutes at 30° C. either in the presence or absence of added 5 μM Aβ1-42. […] The inability of PDK1 to interact with its target Akt led to a decrease in Akt activation and a loss of the subsequent downstream phosphorylations (e.g., GSK3β peptide as in FIGS. 3A and 3C, not shown).
For cell-based interaction studies, intracellular Aβ42 production was induced by infecting C2C12 myotubes with Adv Aβ/TetOn. These cell extracts (100 μg) were used to IP endogenous Akt, and from this pull-down, determine the levels of associated PDK by western blot. The in vitro interaction study involved first enriching for Akt through viral-mediated expression of WT-Akt. Akt-enriched/PDK-depleted extract was then prepared by removing the PDK, via immunoprecipitation, from the Akt-enriched cell extract. Akt-depleted extracts were prepared from control extracts by pre-immunoprecipitating Akt. These were relatively enriched with endogenous PDK. The enrichments and depletions were confirmed by western blot analysis. The interaction assay contained a mixture of 100 μg Akt-enriched and 100 μg control cell extract in the presence or absence of Aβ42 (up to 10 μM). The mixtures were incubated for 30 minutes at 30° C., followed by overnight incubation at 4° C. with goat anti-Akt1. Protein G beads were added with mixing for 1.5 hr. PDK1 and Akt1 levels were determined by western blot. In control experiments, 100 μg of Akt-enriched, PDK-depleted extract and 100 μg of a control extract depleted for Akt were mixed in the presence or absence of Aβ42 (up to 5 μM) and subjected to the same analyses.

- association between Akt and PDK1 (co-immunoprecipitation): pulled-down less PDK
- association between Akt and PDK1 (co-immunoprecipitation) (listed as Aβ1-42): dramatic reduction
- pull-down of PDK1 with Akt1 (10 μM, Akt-enriched plus control extracts): abrogated
Substance: Aβ42: synthetic 42 amino acid β-amyloid peptide, forward sequence, freshly prepared, predominantly monomeric (BioSource)
